Columns and labels:
PAK 6 strain = assay: Growth of the PAK 6 strain on a glucose mineral medium (in vivo nutritional screening); assay type: cell-based, Escherichia coli; design: key: (+) growth; (−) absence of growth; settings: for Growth of the PAK 6 strain, A: glucose mineral medium with adenine; for Growth of the PAK 6 strain, dG + A: glucose mineral medium with deoxyguanosine + adenine; for Growth of the PAK 6 strain, G: glucose mineral medium with guanine
Text: A functional screening allowing the production of guanine to be selected was established on E. coli by deleting the two genes of the guaBA operon which controls the conversion of IMP into XMP then into GMP and also those of the deoCABD operon which controls the degradation of deoxynucleosides to give the PAK 6 strain. The E. coli genome specifies an activity allowing the base G to be converted into GMP (guanine phosphoribosyltransferase encoded by the gpt gene), and also an activity allowing the base G to be released from the dR-G deoxynucleoside (purine nucleoside phosphorylase encoded by the deoD gene in the deo operon). The PAK 6 strain thus has a requirement for guanine (G) which cannot be satisfied by the addition of deoxyguanosine (dR-G). The use of deoxyguanosine (dR-G) can however be selected if an N-deoxyribosyltransferase activity is expressed in the PAK6 strain in order to carry out the exchange: dR-G+A<->dR-A+G.
This exchange between two purine bases can be catalyzed by the two enzyme classes.
DNA fragments of a size comprised between 1 and 2 kb obtained by partial digestion (AluI) of L. helveticus CNRZ 32 were ligated in a ColE1 plasmid (of pUC type digested by SmaI and desphosphorylated) and the mixture is used to transform the PAK6 strain. The transforming clones were selected in a glucose mineral medium to which deoxyguanosine (dR-G) and adenine (A) have been added to the final concentration of 0.3 mM.

[1] = tested on: N-deoxyribosyltransferase activity; assay: Enzymatic activity of corresponding raw extracts (in vitro); assay type: biochemical; design: key: (+) growth; (−) absence of growth; settings: for Enzymatic activity of raw extracts, dC + A: substrates deoxycytidine + adenine; for Enzymatic activity of raw extracts, dC + T: substrates deoxycytidine + thymine; for Enzymatic activity of raw extracts, dG + A: substrates deoxyguanosine + adenine
PAK 26 strain = assay: Nutritional screening in PAK 26 strain to distinguish deoxyribosyltransferase I and II activities; assay type: cell-based, Escherichia coli; settings: plasmid of selected transforming clones; deoxyguanosine and thymine as sources of guanine and thymidine
Text: Preferably this strain is incapable of growing in the presence of deoxyguanosine as a source of guanine. In preferred manner, it is the PAK 6 strain. • (ii) transfer of exogenous DNA, preferably in the form of an expression vector, into the bacterium, the exogenous DNA being capable of comprising a sequence coding for a deoxyribosyltransferase. • (iii) culture of the bacteria obtained in Stage (ii) on a medium containing deoxyguanosine. • (iv) isolation of the exogenous DNA transferred into the bacteria of Stage (iii) which have developed on the medium containing deoxyguanosine. The present invention also provides a nutritional screening for distinguishing the deoxyribosyltransferase I and II activities, preferably in particular for distinguishing between the ntd and ptd polypeptides according to the invention. This second screening comprises the stages of: • (i) obtaining a bacterial strain such as for example Escherichia coli, auxotrophic for guanine and thymidine. Preferably, this strain is incapable of growing in the presence of guanine and thymidine. In preferred manner, it is the PAK 26 strain (Δ guaBguaA::Δdeo-11 ΔthyA::erm Δ (udp-metE) zif9::Tn10) is auxotrophic for methionine, guanine and thymidine. • (ii) transfer of the exogenous DNA, preferably in the form of an expression vector, into the bacterium, the exogenous DNA being capable of comprising a sequence coding for a deoxyribosyltransferase I or II. • (iii) culture of the bacteria obtained in Stage (ii) on a medium containing deoxyguanosine, then determination of whether the bacteria are growing or not. If the bacteria are growing, then the exogenous DNA codes for a deoxyribosyltransferase II activity which is expressed in said bacterium. If the bacteria are not growing, then the exogenous DNA is capable of coding for a deoxyribosyltransferase I activity. Other characteristics and advantages of the invention are clear from the rest of the description, with examples represented hereafter. […]

B1: ntd: N-deoxyribosyltransferase of SEQ ID No. 6 coded by the ntd Lf gene of Lactobacillus fermentum (protein)
chain: LKNTDPVANTKIYLATSFFNEEQRARIPQALAQLEANPTVGVVHQPFDFQYKDARVDSDPAGVFGSLEWQIATYNNDLNAVGTSDVCVALYDMDQIDEGICMEIGMFVALHKPIVLLPFTKKDKSAYEANLMLARGVTTWLEPNDFSPLKDFNFNHPMAQPFPPFKVF
modifications: Lactobacillus fermentum NTD
PAK 6 strain
  Growth of the PAK 6 strain, A: −
  Growth of the PAK 6 strain, dG + A: +
  Growth of the PAK 6 strain, G: +
[1]
  Enzymatic activity of raw extracts, dC + A: +
  Enzymatic activity of raw extracts, dC + T: +
  Enzymatic activity of raw extracts, dG + A: +
PAK 26 strain
  Class of N-deoxyribosyltransferase activity (I or II): Class II N-deoxyribosyltransferase activity

B2: ntd Lh: N-deoxyribosyltransferase of SEQ ID No. 2 (or SEQ ID No. 14) coded by the ntd Lh gene of Lactobacillus helveticus (protein)
chain: MNKKKTLYFGAGWFNEKQNKAYKEAMAALKENPTVDLENSYVPLENQYKGIRIDEHPEYLHNIEWASATYHNDLVGIKTSDVMLGVYLPEEEDVGLGMELGYALSQGKYILLVIPDEDYGKPINLMSWGVCDNAIKISELKDFDFNKPRYNFYDGAVY
modifications: Lactobacillus helveticus NTD
PAK 6 strain
  Growth of the PAK 6 strain, A: −
  Growth of the PAK 6 strain, dG + A: +
  Growth of the PAK 6 strain, G: +
[1]
  Enzymatic activity of raw extracts, dC + A: +
  Enzymatic activity of raw extracts, dC + T: +
  Enzymatic activity of raw extracts, dG + A: +
PAK 26 strain
  Class of N-deoxyribosyltransferase activity (I or II): Class II N-deoxyribosyltransferase activity

B3: ptd Lh: N-deoxyribosyltransferase of SEQ ID No. 4 coded by the ptd Lh gene of Lactobacillus helveticus (purine deoxyribosyltransferase) (protein)
chain: MKAVVPTGKIYLGSPFYSDAQRERAAKAKELLAKNLSIAHVFFPFDDGFTDPDEKNPEIGGIRSMVWRDATYQNDLTGISNATCGVFLYDMDQLDDGSAFEIGFMRAMHKPVILVPFTEHPEKEKKMNLMIAQGVTTIIDGNTEFEKLADYNFNECPFNPVRGYGIY
modifications: Lactobacillus helveticus PTD
PAK 6 strain
  Growth of the PAK 6 strain, A: −
  Growth of the PAK 6 strain, dG + A: +
  Growth of the PAK 6 strain, G: +
[1]
  Enzymatic activity of raw extracts, dC + A: −
  Enzymatic activity of raw extracts, dC + T: −
  Enzymatic activity of raw extracts, dG + A: +
PAK 26 strain
  Class of N-deoxyribosyltransferase activity (I or II): Class I N-deoxyribosyltransferase activity

From US20100015685A1, “LACTOBACILLUS N-DEOXYRIBOSYL TRANSFERASES, CORRESPONDING NUCLEOTIDE SEQUENCES AND THEIR USES” (INSTITUT PASTEUR, priority 2001, published 2010)
